Legend:
[1] = target: CD4 mimetic miniprotein M48U1; assay: fluorescence polarization; details: read off a plot
[2] = target: SF162 gp120 D474N (HIV-1 SF162 (subtype B)); assay: fluorescence polarisation; fluorescently labelled M48 or M48U1 with purified monomeric recombinant SF162 gp120 (concentrations standardised by ELISA with D7324); LJL Analyst reader; Kd by non-linear regression; results given as fold increase in Kd relative to native SF162 gp120; as in ref. 68
[3] = target: SF162 gp120 G335R (HIV-1 SF162 (subtype B)); assay: as above
[4] = target: SF162 gp120 L494V (HIV-1 SF162 (subtype B)); assay: as above
[5] = target: SF162 gp120 S375N (HIV-1 SF162 (subtype B)); assay: as above

Substance	ratio to parent [1]	other results
SF162 gp120, wild type (monomeric recombinant) G471R	3.8	
CD4 mimetic miniprotein M48U1 (designed binder)		fold Kd relative to WT SF162 gp120 [2]: 1 fold; fold Kd relative to WT SF162 gp120 [3]: 1 fold; fold Kd relative to WT SF162 gp120 [4]: 1 fold; fold Kd relative to WT SF162 gp120 [5]: 1 fold
SF162 gp120, wild type (monomeric recombinant) H105Y	3.8	
SF162 gp120, wild type (monomeric recombinant) S375R	1900	
SF162 gp120, wild type (monomeric recombinant) V255M	9.6	

Source: PMC3408336
